According to US20240400638A1, “COMBINATION OF RELAXIN AND VASOPRESSIN ANALOGUES FOR TREATMENT OF RENAL DISORDERS OR CONDITIONS” (River 2 Renal Corp., priority 2021, published 2024):
Numbered stars: 1 amine (or outer) side, 2 acyl side, 3 side chain; on linkers, the order of the positions; unused ones are H or OH. Square brackets hold non-standard residues; d marks the D form. Side chains are listed from the residue outwards. * marks the point of attachment. TTDS = 4-[3-[2-[2-(3-aminopropoxy)ethoxy]ethoxy]propylamino]-4-oxo-butanoyl; Trp(5-Cl) = N[C@@H](Cc1c[nH]c2ccc(Cl)cc12)C(=O)O; γGlu = O=C(O)[C@H](CCC(=O)[*:2])N[*:1]; Stearoyl = CCCCCCCCCCCCCCCCCC(=O)*; Palmitoyl = CCCCCCCCCCCCCCCC(=O)*; αMeK = C[C@](N)(CCCCN)C(=O)O; AEEA = NCCOCCOCC(=O)O; Aib = CC(C)(N)C(=O)O

B1: Relaxin peptide analogue of SEQ ID NO: 5 (peptide)
peptide: Ac-LEGREKVRAK(Ac)I[Aib][Aib]EGK([AEEA-AEEA-AEEA-AEEA-γGlu-γGlu-γGlu-Palmitoyl])STWS[Aib]RKK(Ac)-NH2
SMILES: CCCCCCCCCCCCCCCC(=O)N[C@@H](CCC(=O)N[C@@H](CCC(=O)N[C@@H](CCC(=O)NCCOCCOCC(=O)NCCOCCOCC(=O)NCCOCCOCC(=O)NCCOCCOCC(=O)NCCCC[C@H](NC(=O)CNC(=O)[C@H](CCC(=O)O)NC(=O)C(C)(C)NC(=O)C(C)(C)NC(=O)[C@@H](NC(=O)[C@H](CCCCNC(C)=O)NC(=O)[C@H](C)NC(=O)[C@H](CCCNC(=N)N)NC(=O)[C@@H](NC(=O)[C@H](CCCCN)NC(=O)[C@H](CCC(=O)O)NC(=O)[C@H](CCCNC(=N)N)NC(=O)CNC(=O)[C@H](CCC(=O)O)NC(=O)[C@H](CC(C)C)NC(C)=O)C(C)C)[C@@H](C)CC)C(=O)N[C@@H](CO)C(=O)N[C@H](C(=O)N[C@@H](Cc1c[nH]c2ccccc12)C(=O)N[C@@H](CO)C(=O)NC(C)(C)C(=O)N[C@@H](CCCNC(=N)N)C(=O)N[C@@H](CCCCN)C(=O)N[C@@H](CCCCNC(C)=O)C(N)=O)[C@@H](C)O)C(=O)O)C(=O)O)C(=O)O

Target: T1, human RXFP1 (human, UniProt Q9HBX9 1-757)
T1 sequence (looked up): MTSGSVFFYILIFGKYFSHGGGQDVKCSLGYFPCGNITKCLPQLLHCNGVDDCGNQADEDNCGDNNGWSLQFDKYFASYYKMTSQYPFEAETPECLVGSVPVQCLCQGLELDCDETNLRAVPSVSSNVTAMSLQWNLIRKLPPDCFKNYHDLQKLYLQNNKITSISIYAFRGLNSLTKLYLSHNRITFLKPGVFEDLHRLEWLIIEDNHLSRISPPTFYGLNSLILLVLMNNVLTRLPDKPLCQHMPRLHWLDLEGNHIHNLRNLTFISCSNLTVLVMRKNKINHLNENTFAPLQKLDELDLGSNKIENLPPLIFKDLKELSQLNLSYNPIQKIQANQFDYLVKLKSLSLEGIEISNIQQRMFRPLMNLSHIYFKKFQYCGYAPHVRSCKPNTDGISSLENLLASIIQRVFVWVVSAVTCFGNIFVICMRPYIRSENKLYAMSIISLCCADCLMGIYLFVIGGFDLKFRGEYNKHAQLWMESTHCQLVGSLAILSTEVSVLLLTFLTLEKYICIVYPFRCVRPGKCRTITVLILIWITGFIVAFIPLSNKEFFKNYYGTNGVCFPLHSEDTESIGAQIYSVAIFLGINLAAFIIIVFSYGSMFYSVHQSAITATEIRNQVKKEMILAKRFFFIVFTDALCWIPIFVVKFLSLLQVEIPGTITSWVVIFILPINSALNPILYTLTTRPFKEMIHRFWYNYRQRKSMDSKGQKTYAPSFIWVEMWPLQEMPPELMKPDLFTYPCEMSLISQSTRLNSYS
Test: cell-based or functional assay

Row | Binder | EC50 (nM), OVCAR 5 cells (cAMP) [nM] | EMax, OVCAR 5 cells (cAMP) [%]
1 | Ac-LEGREKVRAK(Ac)I[Aib][Aib]EGK([TTDS-TTDS-TTDS-γGlu-γGlu-γGlu-Palmitoyl])STWS[Aib]RK(Ac)K-NH2 [Relaxin peptide analogue of SEQ ID NO: 68] | 0.88 | 98
2 | Ac-LEGREKVRAK(Ac)I[Aib][Aib]EGK([TTDS-TTDS-TTDS-γGlu-γGlu-γGlu-Palmitoyl])STWK(Ac)[Aib]RAK(Ac)-NH2 [Relaxin peptide analogue of SEQ ID NO: 66] | 6.31 | 93
3 | Ac-LEGRERVRAK(Ac)I[Aib][Aib]EGK([TTDS-TTDS-TTDS-γGlu-γGlu-γGlu-Palmitoyl])STWS[Aib]RKK(Ac)-NH2 [Relaxin peptide analogue of SEQ ID NO: 67] | 0.48 | 95
4 | Ac-LEGRERVRAK(Ac)I[Aib][Aib]EGK([TTDS-TTDS-TTDS-TTDS-γGlu-γGlu-γGlu-Palmitoyl])STFS[Aib]RRK(Ac)-NH2 [Relaxin peptide analogue of SEQ ID NO: 77] | 0.11 | 98
5 | Ac-LEGREKVRAK(Ac)I[Aib][Aib]EGK([TTDS-TTDS-TTDS-γGlu-γGlu-γGlu-Palmitoyl])SQWS[Aib]RKK(Ac)-NH2 [Relaxin peptide analogue of SEQ ID NO: 63] | 1.45 | 97
6 | Ac-LEGREKVRAK(Ac)I[Aib][Aib]EGK([TTDS-TTDS-TTDS-γGlu-γGlu-γGlu-Palmitoyl])SKFS[Aib]RKK(Ac)-NH2 [Relaxin peptide analogue of SEQ ID NO: 79] | 0.45 | 95
7 | Ac-K(Ac)EGREKVRAK(Ac)I[Aib][Aib]EGK([TTDS-TTDS-TTDS-γGlu-γGlu-γGlu-Palmitoyl])STFS[αMeK]RAK(Ac)-NH2 [Relaxin peptide analogue of SEQ ID NO: 81] | 0.16 | 98
8 | Ac-LEGREKVRAK(Ac)I[Aib][Aib]EGK([TTDS-TTDS-TTDS-γGlu-γGlu-γGlu-Palmitoyl])STWS[Aib]RAK-NH2 [Relaxin peptide analogue of SEQ ID NO: 71] | 0.36 | 95
9 | Ac-LEGREKVRAK(Ac)I[Aib][Aib]EGK([TTDS-TTDS-TTDS-γGlu-γGlu-γGlu-Palmitoyl])SKWS[Aib]RAK-NH2 [Relaxin peptide analogue of SEQ ID NO: 73] | 0.2 | 95
10 | Ac-LEGREKVRAK(Ac)I[Aib][Aib]EGK([TTDS-TTDS-γGlu-γGlu-γGlu-Stearoyl])STFS[Aib]RKK(Ac)-NH2 [Relaxin peptide analogue of SEQ ID NO: 60] | 0.15 | 95
11 | Ac-LEGREKVRAK(Ac)I[Aib][Aib]EGK([TTDS-TTDS-TTDS-γGlu-γGlu-γGlu-γGlu-Palmitoyl])STWS[Aib]RKK(Ac)-NH2 [Relaxin peptide analogue of SEQ ID NO: 62] | 0.6 | 98
12 | Ac-LEGRERVRAK(Ac)I[Aib][Aib]EGK([TTDS-TTDS-TTDS-TTDS-γGlu-γGlu-γGlu-Palmitoyl])STWS[Aib]RRK(Ac)-NH2 [Relaxin peptide analogue of SEQ ID NO: 75] | 0.19 | 97
13 | Ac-LEGREKVRAK(Ac)I[Aib][Aib]EGK([TTDS-TTDS-TTDS-γGlu-γGlu-γGlu-Palmitoyl])STWS[Aib]RK(Ac)R-NH2 [Relaxin peptide analogue of SEQ ID NO: 69] | 0.78 | 97
14 | Ac-LEGREKVRAK(Ac)I[Aib][Aib]EGK([TTDS-TTDS-TTDS-TTDS-γGlu-γGlu-γGlu-Palmitoyl])STFS[αMeK]RAK(Ac)-NH2 [Relaxin peptide analogue of SEQ ID NO: 78] | 0.18 | 99
15 | Ac-LEGRERVRAK(Ac)I[Aib][Aib]EGK([TTDS-TTDS-TTDS-γGlu-γGlu-γGlu-Palmitoyl])STFS[Aib]RRK(Ac)-NH2 [Relaxin peptide analogue of SEQ ID NO: 76] | 0.18 | 96
16 | Ac-LEGREKVRK(Ac)QI[Aib][Aib]EGK([TTDS-TTDS-TTDS-γGlu-γGlu-γGlu-Palmitoyl])STWS[Aib]RKK(Ac)-NH2 [Relaxin peptide analogue of SEQ ID NO: 65] | 1.19 | 95
17 | Ac-LEGREKVRAK(Ac)I[Aib][Aib]EGK([TTDS-TTDS-TTDS-TTDS-γGlu-γGlu-γGlu-Stearoyl])STFS[Aib]RKK(Ac)-NH2 [Relaxin peptide analogue of SEQ ID NO: 59] | 0.09 | 99
18 | Ac-LEGRERVRAK(Ac)I[Aib][Aib]EGK([TTDS-TTDS-TTDS-γGlu-γGlu-γGlu-Palmitoyl])ST[Trp(5-Cl)]S[Aib]RRK(Ac)-NH2 [Relaxin peptide analogue of SEQ ID NO: 80] | 0.63 | 93
19 | Ac-LEGREKVRAK(Ac)I[Aib][Aib]EGK([TTDS-TTDS-TTDS-γGlu-γGlu-γGlu-Palmitoyl])STWS[Aib]RKK(Ac)-NH2 [Relaxin peptide analogue of SEQ ID NO: 1] | 1.5 | 99
20 | Ac-LEGREKVRAK(Ac)I[Aib][Aib]EGK([TTDS-TTDS-γGlu-γGlu-γGlu-Stearoyl])STWS[Aib]RKK(Ac)-NH2 [Relaxin peptide analogue of SEQ ID NO: 6] | 0.27 | 95
21 | Ac-LEGREKVRAK(Ac)I[Aib][Aib]EGK([TTDS-TTDS-TTDS-γGlu-γGlu-γGlu-Stearoyl])STFS[Aib]RKK(Ac)-NH2 [Relaxin peptide analogue of SEQ ID NO: 61] | 0.1 | 97
22 | Ac-LEGREKVRAK(Ac)I[Aib][Aib]EGK([TTDS-TTDS-TTDS-γGlu-γGlu-γGlu-Stearoyl])STFS[αMeK]RAK(Ac)-NH2 [Relaxin peptide analogue of SEQ ID NO: 7] | 0.07 | 95
23 | Ac-LEGREKVRAK(Ac)I[Aib]IEGK([TTDS-TTDS-TTDS-γGlu-γGlu-γGlu-Palmitoyl])STWS[Aib]RKK(Ac)-NH2 [Relaxin peptide analogue of SEQ ID NO: 70] | 1.34 | 94
24 | Ac-LEGREKVRAK(Ac)I[Aib][Aib]EGK([TTDS-TTDS-TTDS-γGlu-γGlu-γGlu-Palmitoyl])SRWS[Aib]RKK(Ac)-NH2 [Relaxin peptide analogue of SEQ ID NO: 64] | 0.52 | 95
25 | Ac-LEGREKVRAK(Ac)I[Aib][Aib]EGK([TTDS-TTDS-TTDS-γGlu-γGlu-γGlu-Palmitoyl])STF[Aib]RRAK(Ac)-NH2 [Relaxin peptide analogue of SEQ ID NO: 72] | 0.56 | 91
26 | Ac-LEGREKVRAK(Ac)I[Aib]IEGK([TTDS-TTDS-TTDS-TTDS-γGlu-γGlu-γGlu-Palmitoyl])STWS[Aib]RKK(Ac)-NH2 [Relaxin peptide analogue of SEQ ID NO: 74] | 0.54 | 94
27 | B1 | 9.1 | 85
